Measurements from the supplement of paper PMC7125110.
± gives the standard error. For some of these results: Variants at the floor of the assay were thinned out.

B1: glmS ribozyme (parent)
chain: AUAAAAGCGCCAGAACUACAGAAAUGUAGUUGACGAGGAGGAGGUUUAUCGAAUUUUCGGCGGAUGCCUCCAAA

What was measured:
Conditions in all cases: with glucosamine-6-phosphate
glucosamine-6-phosphate [1] = variants of: B1; assay: kcat; higher = faster cleavage; RNA array
Outline: (§1)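 Glucosamine-6-phosphate (40 μM to 10 mM) in HEPES/KCl/Mg(OAc)2 buffer was flowed over sequenced MiSeq chips, and tiles were imaged over ~14 h. Barcoded ribozyme variants there had been transcribed in situ by E. coli RNA polymerase and were tracked through a hybridised Cy3 probe at 37 °C. One- or two-exponential decay fits to per-tile medians, normalised to baseline and to non-cleaving reference variants, gave kobs. kcat and KM came from weighted Michaelis–Menten fits across concentrations.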

glucosamine-6-phosphate [2] = variants of: B1; assay: self-cleavage kobs at 40 uM GlcN6P; higher = faster cleavage; RNA array
Outline: as §1

glucosamine-6-phosphate [3] = variants of: B1; assay: self-cleavage kobs at 160 uM GlcN6P; higher = faster cleavage; RNA array
Outline: as §1

glucosamine-6-phosphate [4] = variants of: B1; assay: self-cleavage kobs at 2500 uM GlcN6P; higher = faster cleavage; RNA array
Outline: as §1

glucosamine-6-phosphate [5] = variants of: B1; assay: self-cleavage kobs at 10000 uM GlcN6P; higher = faster cleavage; RNA array
Outline: as §1

glucosamine-6-phosphate [6] = variants of: B1; assay: KM; higher = weaker cofactor use; RNA array
Outline: as §1

glucosamine-6-phosphate [7] = variants of: B1; assay: self-cleavage kobs at 640 uM GlcN6P; higher = faster cleavage; RNA array
Outline: as §1

Row | Variant | kcat (glucosamine-6-phosphate [1]) [s⁻¹] | self-cleavage kobs at 40 uM GlcN6P (glucosamine-6-phosphate [2]) [s⁻¹] | self-cleavage kobs at 160 uM GlcN6P (glucosamine-6-phosphate [3]) [s⁻¹] | self-cleavage kobs at 2500 uM GlcN6P (glucosamine-6-phosphate [4]) [s⁻¹] | self-cleavage kobs at 10000 uM GlcN6P (glucosamine-6-phosphate [5]) [s⁻¹] | KM (glucosamine-6-phosphate [6]) [µM] | self-cleavage kobs at 640 uM GlcN6P (glucosamine-6-phosphate [7]) [s⁻¹]
1 | G44U C70U | 3.72e-05 ± 5.6e-06 | < 1e-05 | < 1e-05 | 3.43e-05 ± 1.1e-05 | 3.29e-05 ± 6.6e-06 | – | –
2 | C11A A64G | 0.000168 ± 1.1e-05 | – | – | 0.000135 ± 2.7e-05 | 0.000147 ± 1.6e-05 | 1190 ± 250 | 5.53e-05 ± 1.3e-05
3 | C50A U54G | 2.18e-05 ± 1.9e-06 | – | – | – | – | – | –
4 | G13U A53U | 0.00139 ± 4.1e-05 | – | 5.58e-05 ± 2e-05 | 0.000584 ± 0.00011 | 0.00103 ± 0.00011 | 3550 ± 190 | 0.000213 ± 3.9e-05
5 | G29A U31G | 0.000319 ± 2.2e-05 | – | 3.63e-05 ± 1e-05 | 0.000217 ± 3.4e-05 | 0.000272 ± 5.4e-05 | 1380 ± 180 | 9.51e-05 ± 1.6e-05
6 | A6U G59A C68U | 1.04e-05 ± 3.6e-06 | – | – | – | – | – | –
7 | G29U U54C | 0.00486 ± 0.0013 | 0.000157 ± 3.1e-05 | 0.000421 ± 6.8e-05 | 0.00249 ± 0.00049 | 0.00596 ± 0.0013 | 1540 ± 590 | 0.00146 ± 0.00023
8 | C10U U47C | < 1e-05 | < 1e-05 | – | – | – | – | < 1e-05
9 | U46C U57G | 1.4e-05 ± 2.4e-06 | – | – | – | – | – | –
10 | U56G C71G | 0.000632 ± 0.00018 | 6.71e-05 ± 1.8e-05 | 0.00014 ± 2.1e-05 | 0.000512 ± 0.0001 | 0.000942 ± 0.00021 | – | 0.000271 ± 4.6e-05
11 | U30C U46G | 3.27e-05 ± 2.8e-06 | – | – | – | – | 5040 ± 1000 | –
12 | G62U C68A | 1.34e-05 ± 8.7e-07 | – | – | – | – | 129 ± 56 | –
13 | U47G C58U | 8.14e-05 ± 1.6e-05 | – | – | 3.07e-05 ± 1.2e-05 | 6.32e-05 ± 8.6e-06 | – | –
14 | A15C U57G | 2.37e-05 ± 5.5e-06 | < 1e-05 | < 1e-05 | – | – | – | –
15 | A36U G38U | < 1e-05 | – | – | – | < 1e-05 | – | –
16 | A53G U56A | 0.0133 ± 0.0047 | 0.000437 ± 9e-05 | 0.00116 ± 0.00021 | 0.00663 ± 0.0019 | 0.0137 ± 0.0026 | 1830 ± 890 | 0.00273 ± 0.00051
17 | U30C U56A | 0.000339 ± 6.9e-06 | – | – | 0.000155 ± 1.6e-05 | 0.000263 ± 2.4e-05 | 2910 ± 110 | 6.11e-05 ± 6.9e-06

Row | Variant | kcat (glucosamine-6-phosphate [1]) [s⁻¹] | self-cleavage kobs at 40 uM GlcN6P (glucosamine-6-phosphate [2]) [s⁻¹] | self-cleavage kobs at 160 uM GlcN6P (glucosamine-6-phosphate [3]) [s⁻¹] | self-cleavage kobs at 2500 uM GlcN6P (glucosamine-6-phosphate [4]) [s⁻¹] | self-cleavage kobs at 10000 uM GlcN6P (glucosamine-6-phosphate [5]) [s⁻¹] | KM (glucosamine-6-phosphate [6]) [µM] | self-cleavage kobs at 640 uM GlcN6P (glucosamine-6-phosphate [7]) [s⁻¹]
18 | C16G U65A | 0.000589 ± 6.3e-05 | – | – | 0.00027 ± 6.5e-05 | 0.00045 ± 4.9e-05 | 3010 ± 580 | 0.000107 ± 1.4e-05
19 | A39U A48C | 0.000221 ± 2.1e-05 | – | – | 0.000181 ± 1.8e-05 | 0.000196 ± 1.6e-05 | 836 ± 370 | –
20 | A15C C71G | 0.000307 ± 5.8e-05 | – | 4.96e-05 ± 1.3e-05 | 0.000299 ± 3.9e-05 | 0.00025 ± 3.6e-05 | 1010 ± 390 | 0.00011 ± 1.2e-05
21 | U54C C67A | 0.00598 ± 0.0014 | 0.000198 ± 3.2e-05 | 0.000315 ± 0.00012 | – | 0.00521 ± 0.00071 | 1580 ± 590 | 0.00199 ± 0.00058
22 | U56G C70G | 9.25e-05 ± 3.2e-06 | 4.14e-05 ± 9.7e-06 | 6.12e-05 ± 1e-05 | 9.14e-05 ± 1.1e-05 | 9.54e-05 ± 9.8e-06 | 61.4 ± 13 | 8.21e-05 ± 8.7e-06
23 | A12C U46G | 0.00332 ± 0.00078 | 8.74e-05 ± 1.3e-05 | 0.000221 ± 3.6e-05 | 0.002 ± 0.00032 | 0.00278 ± 0.00064 | 1950 ± 600 | 0.000761 ± 0.00012
24 | C10U G29C | 1.05e-05 ± 2.4e-06 | – | – | – | – | – | –
25 | U55C C70U | 0.00171 ± 0.00048 | 2.44e-05 ± 9e-06 | 7.16e-05 ± 3e-05 | 0.000413 ± 8.4e-05 | 0.00111 ± 0.00012 | 5960 ± 3000 | 0.000172 ± 4.7e-05
26 | A14G A33G | < 1e-05 | < 1e-05 | < 1e-05 | < 1e-05 | < 1e-05 | – | –
27 | U30G G40C | 0.000669 ± 0.0001 | 3.69e-05 ± 1.2e-05 | 0.000103 ± 1.9e-05 | 0.000619 ± 8.6e-05 | 0.000544 ± 0.0001 | 864 ± 240 | 0.000265 ± 3.4e-05
28 | A42G C50A | 4.52e-05 ± 2.6e-06 | – | – | – | – | 7070 ± 920 | –
29 | A36C U69C | 1.31e-05 ± 3.1e-06 | – | – | < 1e-05 | – | – | –
30 | C50U C70U | 4.57e-05 ± 5.9e-07 | – | – | 4.25e-05 ± 8.3e-06 | 4.51e-05 ± 7.2e-06 | 154 ± 18 | 3.85e-05 ± 1.4e-05
31 | C11A G37U | 1.35e-05 ± 3.5e-06 | – | < 1e-05 | – | – | – | –
32 | A39U U47C | 0.00869 ± 0.002 | 0.000213 ± 4.3e-05 | 0.000748 ± 0.0002 | 0.00471 ± 0.00098 | 0.00934 ± 0.0026 | 1870 ± 580 | 0.00198 ± 0.00032
33 | G40U A53G | 0.00428 ± 0.0018 | 0.00024 ± 5.5e-05 | 0.000703 ± 0.0002 | 0.00316 ± 0.00063 | 0.0062 ± 0.0017 | – | 0.00118 ± 0.00028
34 | A36C C58G | 2.16e-05 ± 5.9e-06 | – | – | – | – | – | –
